Paper PMC5180592 (Science (New York, N.Y.), 2015)

T1: Nup120 (S. cerevisiae, UniProt P35729 1-1037)
T1 sequence: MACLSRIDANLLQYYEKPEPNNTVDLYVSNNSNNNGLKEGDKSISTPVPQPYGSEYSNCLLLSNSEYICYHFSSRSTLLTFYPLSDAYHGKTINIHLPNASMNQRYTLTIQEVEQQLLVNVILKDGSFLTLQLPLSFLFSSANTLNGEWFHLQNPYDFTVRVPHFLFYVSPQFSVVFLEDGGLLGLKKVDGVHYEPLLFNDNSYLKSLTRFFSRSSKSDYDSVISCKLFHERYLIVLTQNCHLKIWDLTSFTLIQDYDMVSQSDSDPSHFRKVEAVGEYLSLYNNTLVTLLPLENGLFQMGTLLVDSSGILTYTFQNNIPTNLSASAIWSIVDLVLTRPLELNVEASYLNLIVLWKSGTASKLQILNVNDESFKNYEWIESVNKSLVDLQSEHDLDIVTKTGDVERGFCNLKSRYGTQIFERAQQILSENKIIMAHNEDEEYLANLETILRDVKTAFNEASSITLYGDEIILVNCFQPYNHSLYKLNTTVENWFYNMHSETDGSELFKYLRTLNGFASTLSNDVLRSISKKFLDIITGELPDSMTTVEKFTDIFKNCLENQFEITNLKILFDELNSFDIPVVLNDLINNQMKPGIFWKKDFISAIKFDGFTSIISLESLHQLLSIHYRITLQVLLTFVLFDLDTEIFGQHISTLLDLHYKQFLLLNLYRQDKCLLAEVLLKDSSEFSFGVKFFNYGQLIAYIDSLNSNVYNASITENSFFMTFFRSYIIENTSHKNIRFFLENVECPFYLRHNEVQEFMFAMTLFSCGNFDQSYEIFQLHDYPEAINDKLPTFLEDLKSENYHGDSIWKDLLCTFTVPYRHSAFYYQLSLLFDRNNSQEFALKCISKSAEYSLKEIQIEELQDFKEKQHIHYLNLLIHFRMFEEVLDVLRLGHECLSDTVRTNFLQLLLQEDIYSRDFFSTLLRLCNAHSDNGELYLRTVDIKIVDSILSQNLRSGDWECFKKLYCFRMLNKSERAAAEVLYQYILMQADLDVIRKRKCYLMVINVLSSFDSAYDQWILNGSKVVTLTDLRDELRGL

B1: Nup85 (natural protein, S. cerevisiae, UniProt P46673 1-744, looked up)
chain: MTIDDSNRLLMDVDQFDFLDDGTAQLSNNKTDEEEQLYKRDPVSGAILVPMTVNDQPIEKNGDKMPLKFKLGPLSYQNMAFITAKDKYKLYPVRIPRLDTSKEFSAYVSGLFEIYRDLGDDRVFNVPTIGVVNSNFAKEHNATVNLAMEAILNELEVFIGRVKDQDGRVNRFYELEESLTVLNCLRTMYFILDGQDVEENRSEFIESLLNWINRSDGEPDEEYIEQVFSVKDSTAGKKVFETQYFWKLLNQLVLRGLLSQAIGCIERSDLLPYLSDTCAVSFDAVSDSIELLKQYPKDSSSTFREWKNLVLKLSQAFGSSATDISGELRDYIEDFLLVIGGNQRKILQYSRTWYESFCGFLLYYIPSLELSAEYLQMSLEANVVDITNDWEQPCVDIISGKIHSILPVMESLDSCTAAFTAMICEAKGLIENIFEGEKNSDDYSNEDNEMLEDLFSYRNGMASYMLNSFAFELCSLGDKELWPVAIGLIALSATGTRSAKKMVIAELLPHYPFVTNDDIEWMLSICVEWRLPEIAKEIYTTLGNQMLSAHNIIESIANFSRAGKYELVKSYSWLLFEASCMEGQKLDDPVLNAIVSKNSPAEDDVIIPQDILDCVVTNSMRQTLAPYAVLSQFYELRDREDWGQALRLLLLLIEFPYLPKHYLVLLVAKFLYPIFLLDDKKLMDEDSVATVIEVIETKWDDADEKSSNLYETIIEADKSLPSSMATLLKNLRKKLNFKLCQAFM
B2: Seh1 (natural protein, S. cerevisiae)
chain: MQPFDSGHDDLVHDVVYDFYGRHVATCSSDQHIKVFKLDKDTSNWELSDSWRAHDSSIVAIDWASPEYGRIIASASYDKTVKLWEEDPDQEECSGRRWNKLCTLNDSKGSLYSVKFAPAHLGLKLACLGNDGILRLYDALEPSDLRSWTLTSEMKVLSIPPANHLQSDFCLSWCPSRFSPEKLAVSALEQAIIYQRGKDGKLHVAAKLPGHKSLIRSISWAPSIGRWYQLIATGCKDGRIRIFKITEKLSPLASEESLTNSNMFDNSADVDMDAQGRSDSNTEEKAELQSNLQVELLSEHDDHNGEVWSVSWNLTGTILSSAGDDGKVRLWKATYSNEFKCMSVITAQQ
B3: Nup85 C-terminal domain (domain or fragment, S. cerevisiae, UniProt P46673 545-744, looked up)
chain: QMLSAHNIIESIANFSRAGKYELVKSYSWLLFEASCMEGQKLDDPVLNAIVSKNSPAEDDVIIPQDILDCVVTNSMRQTLAPYAVLSQFYELRDREDWGQALRLLLLLIEFPYLPKHYLVLLVAKFLYPIFLLDDKKLMDEDSVATVIEVIETKWDDADEKSSNLYETIIEADKSLPSSMATLLKNLRKKLNFKLCQAFM
B4: synthetic antibody sAB-57 (Fab, V domains shown)
VH: EVQLVESGGGLVQPGGSLRLSCAASGFNVSYSSIHWVRQAPGKGLEWVASIYPYYGSTSYADSVKGRFTISADTSKNTAYLQMNSLRAEDTAVYYCARTGMYFGFFHHSWSNAALDYWGQGTLVTVSS
VL: DIQMTQSPSSLSASVGDRVTITCRASQSVSSAVAWYQQKPGKAPKLLIYSASSLYSGVPSRFSGSRSGTDFTLTISSLQPEDFATYYCQQISQYPITFGQGTKVEIK

How the values were obtained:
Nup120 [1] = biological target: T1, Nup120; experiment: crystal structure
Nup85 [2] = biological target: B1; experiment: crystal structure
Nup120 [3] = biological target: T1, Nup120; experiment: SEC
Nup145C = Nup145C (S. cerevisiae, UniProt P49687); experiment: crystal structure
Sequence of Nup145C (P49687 680-1317): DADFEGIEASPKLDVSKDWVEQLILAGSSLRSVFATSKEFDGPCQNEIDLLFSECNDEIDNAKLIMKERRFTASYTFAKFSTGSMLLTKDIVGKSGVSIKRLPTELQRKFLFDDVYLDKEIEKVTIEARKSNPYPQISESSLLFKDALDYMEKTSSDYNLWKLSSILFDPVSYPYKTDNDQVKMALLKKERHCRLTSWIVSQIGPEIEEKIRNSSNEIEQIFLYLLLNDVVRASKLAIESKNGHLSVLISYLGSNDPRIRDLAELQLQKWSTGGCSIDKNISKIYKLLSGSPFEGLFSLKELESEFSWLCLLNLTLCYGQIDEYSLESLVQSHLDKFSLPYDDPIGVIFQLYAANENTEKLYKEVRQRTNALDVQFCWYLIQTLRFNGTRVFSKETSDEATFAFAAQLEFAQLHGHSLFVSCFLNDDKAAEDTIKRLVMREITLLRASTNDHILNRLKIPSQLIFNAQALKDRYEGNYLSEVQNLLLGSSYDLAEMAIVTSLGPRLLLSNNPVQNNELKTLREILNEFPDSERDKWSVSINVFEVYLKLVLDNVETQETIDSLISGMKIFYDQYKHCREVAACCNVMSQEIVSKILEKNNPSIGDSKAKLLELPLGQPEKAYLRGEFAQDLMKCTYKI

Nup85 [4] = biological target: Nup85 (S. cerevisiae, UniProt P46673); experiment: crystal structure

Binder: B1
- binding result (Nup120 [1]): binds

Binder: B2
- binding result (Nup85 [2]): binds

Binder: B3
- binding result (Nup120 [3]): binds

Binder: B4
- binding result (Nup145C): binds
- binding result (Nup85 [4]): binds
